Laboratory results published in paper PMC3741642.

Target: T1, hEndoV (FLJ35220, human endonuclease V) (Homo sapiens, UniProt Q8N8Q3 1-282)
T1 sequence: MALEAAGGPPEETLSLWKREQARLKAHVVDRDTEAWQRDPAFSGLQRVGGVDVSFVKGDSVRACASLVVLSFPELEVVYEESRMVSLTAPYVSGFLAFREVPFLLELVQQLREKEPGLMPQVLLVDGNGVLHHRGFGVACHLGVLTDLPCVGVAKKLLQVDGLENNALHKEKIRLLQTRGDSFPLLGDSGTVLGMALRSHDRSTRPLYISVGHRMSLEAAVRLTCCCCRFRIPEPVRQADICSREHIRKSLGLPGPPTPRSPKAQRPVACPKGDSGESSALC
Test: EMSA; 5 mM CaCl2; EMSA: 0.2 nM 32P substrate, 10 mM HEPES-KOH pH 8.0, 1 mM DTT, 2% glycerol, 5 mM CaCl2, 4 °C 30 min; nondenaturing 8% PAGE

B1: dsRNA without inosine (dsRNA)
RNA 1: CUGUAUGAUGAAGAUGCUGAC
RNA 2: GUCAGCAUCUUCAUCAUACAG
binding result: binds
